Biological target: T1, CEA (180 KDa glycoprotein purified from colorectal tumour liver metastases by affinity chromatography with … (UniProt P06731 35-685))
T1 construct: Native glycoprotein dried onto microtitre plates; also called purified CEA
T1 sequence (looked up): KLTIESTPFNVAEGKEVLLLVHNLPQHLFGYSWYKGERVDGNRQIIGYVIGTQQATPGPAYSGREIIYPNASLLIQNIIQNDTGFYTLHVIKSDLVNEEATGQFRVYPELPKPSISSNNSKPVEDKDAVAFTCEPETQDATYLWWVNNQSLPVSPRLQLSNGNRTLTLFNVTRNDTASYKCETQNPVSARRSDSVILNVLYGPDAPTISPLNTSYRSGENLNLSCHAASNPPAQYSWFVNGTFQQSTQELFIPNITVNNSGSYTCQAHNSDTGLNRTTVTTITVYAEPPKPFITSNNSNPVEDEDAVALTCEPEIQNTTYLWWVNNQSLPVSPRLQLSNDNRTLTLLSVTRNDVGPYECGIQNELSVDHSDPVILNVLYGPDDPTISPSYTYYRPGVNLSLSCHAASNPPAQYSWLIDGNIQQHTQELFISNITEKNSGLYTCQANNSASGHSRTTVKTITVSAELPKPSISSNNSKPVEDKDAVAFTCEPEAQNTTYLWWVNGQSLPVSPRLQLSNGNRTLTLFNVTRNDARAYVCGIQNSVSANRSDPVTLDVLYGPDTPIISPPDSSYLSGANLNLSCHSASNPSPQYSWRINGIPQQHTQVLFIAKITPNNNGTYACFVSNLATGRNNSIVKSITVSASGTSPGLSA
Assay: ELISA, antigen dried onto microtitre plates (FIG. 4)
Description: (§1) The C14 antigen (90 KDa glycoprotein purified from saliva by affinity chromatography on C14 monoclonal), CEA (180 KDa glycoprotein purified from colorectal tumour live metastases by affinity chromatography with 365 mab) and glycolipid extract (glycolipid extracted in 3:1 methanol chloroform w/v from colorectal tumours) were dried onto microtitre plates by overnight incubation at 37° C. Binding of SC104 mab was assayed by ELISA and results expressed as absorbance 405 nm. SC101 and anti-CEA antibodies are included as positive controls.
as §1, with “Binding to purified antigen preparations. The” for “The”, “ELISA” for “ELISA and results expressed”, “described above.” for “absorbance 405 nm. SC101 and anti-CEA antibodies are included as positive controls.”

B1: SC104 monoclonal antibody (antibody, V domains shown)
VH: DVQLQESGPDLVKPSQSLSLTCTVTGYSITSGYSWHWVRQFPGNKMEWMGHIHFSGRPTYNPSLSSRISITRDTSKNQFLLQLKFVTTEDTSTYFCARKGKGSDDGLNYWGQGISVTVSS
VL: ENVLTQSPVIMSASPGEKVTMTCSASSSLSYIHWYQQKSRTSPKLWIYDTSNLASGVPGRFSGSGSGNSYSLTISSMEAEDVATYYCFQGSEYPLTFGGGTKLEMT
notes: Mouse IgG1 mab with kappa light chain, from hybridoma SC104/1E9; also called SC104 mab; SC104 antibody
B1: no binding.

Source: US20080118509A1 (CEPHALON AUSTRALIA, published 2008)
